These results are taken from article PMC3150277, “Crystal Structure of PrgI-SipD: Insight into a Secretion Competent State of the Type Three Secretion System Needle Tip and its Interaction with Host Ligands” (PLoS Pathogens, 2011).

The experiment concerns the target T1, SipD 127-343, as it stands in the PrgI-SipDΔD1 fusion protein (S. enterica serovar typhimurium strain …, UniProt Q56026 127-343).
T1 construct: SipD of S. enterica serovar typhimurium strain SL1344, amino acids 127 to 343; In the crystal it is joined on one chain, C-terminal of PrgI and the linker Gly-Gly-Ser-Gly-Gly; also called SipDΔD1 (in the fusion); source: E. coli BL21(DE3), purified as part of the PrgI-SipDΔD1 fusion protein
T1 sequence: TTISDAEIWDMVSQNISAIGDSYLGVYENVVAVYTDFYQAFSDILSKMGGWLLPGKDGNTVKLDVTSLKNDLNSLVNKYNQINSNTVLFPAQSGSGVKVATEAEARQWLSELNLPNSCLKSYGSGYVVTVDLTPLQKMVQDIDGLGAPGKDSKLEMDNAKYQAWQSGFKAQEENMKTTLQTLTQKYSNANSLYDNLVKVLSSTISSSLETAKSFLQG
As to the kind of experiment: crystal structure; PrgI-SipDΔD1 fusion protein, X-ray, 2.4 Å apo and 2.19 Å soaked with deoxycholate; two copies in the asymmetric unit. The following applies: both partners purified.

B1: PrgI, wildtype, as it stands in the PrgI-SipDΔD1 fusion protein (natural protein)
chain: MATPWSGYLDDVSAKFDTGVDNLQTQVTEALDKLAAKPSDPALLAAYQSKLSEYNLYRNAQSNTVKVFKDIDAAIIQNFR
notes: wildtype PrgI of S. enterica serovar typhimurium strain SL1344; In the crystal it is joined on one chain through Gly-Gly-Ser-Gly-Gly to SipD 127-343; also called needle subunit PrgI; source: E. coli BL21(DE3), purified as part of the PrgI-SipDΔD1 fusion protein; not shown: His-tag, N-terminal, cleaved
With B1, the binding result was “binds”.
